{"source": "IntAct's records for PubMed 22705208", "parents": {"B1": {"name": "Fibroblast growth factor 12 (Homo sapiens), P61328-2 (parent)", "chain": "MESKEPQLKGIVTRLFSQQGYFLQMHPDGTIDGTKDENSDYTLFNLIPVGLRVVAIQGVKASLYVAMNGEGYLYSSDVFTPECKFKESVFENYYVIYSSTLYRQQESGRAWFLGLNKEGQIMKGNRVKKTKPSSHFVPKPIEVCMYREPSLHEIGEKQGRSRKSSGTPTMNGGKVVNQDST"}}}
{"variants_of": "B1", "details": "with scn5a_human SCN5A"}
{"variant": "K9E", "effect of a mutation on the interaction": "disrupting interaction strength"}
{"variants_of": "B1", "details": "with scn5a_human SCN5A", "remark": "another data set of the same source"}
{"variant": "K9E", "effect of a mutation on the interaction": "decreasing interaction strength"}
